These results are taken from IntAct's records for PubMed 22334672.

To fix the notation:
B1: mRNA export factor (Human herpesvirus 1 (strain 17) (HHV-1)), P10238 (parent)
chain: MATDIDMLIDLGLDLSDSDLDEDPPEPAESRRDDLESDSSGECSSSDEDMEDPHGEDGPEPILDAARPAVRPSRPEDPGVPSTQTPRPTERQGPNDPQPAPHSVWSRLGARRPSCSPEQHGGKVARLQPPPTKAQPARGGRRGRRRGRGRGGPGAADGLSDPRRRAPRTNRNPGGPRPGAGWTDGPGAPHGEAWRGSEQPDPPGGQRTRGVRQAPPPLMTLAIAPPPADPRAPAPERKAPAADTIDATTRLVLRSISERAAVDRISESFGRSAQVMHDPFGGQPFPAANSPWAPVLAGQGGPFDAETRRVSWETLVAHGPSLYRTFAGNPRAASTAKAMRDCVLRQENFIEALASADETLAWCKMCIHHNLPLRPQDPIIGTTAAVLDNLATRLRPFLQCYLKARGLCGLDELCSRRRLADIKDIASFVFVILARLANRVERGVAEIDYATLGVGVGEKMHFYLPGACMAGLIEILDTHRQECSSRVCELTASHIVAPPYVHGKYFYCNSLF
partner: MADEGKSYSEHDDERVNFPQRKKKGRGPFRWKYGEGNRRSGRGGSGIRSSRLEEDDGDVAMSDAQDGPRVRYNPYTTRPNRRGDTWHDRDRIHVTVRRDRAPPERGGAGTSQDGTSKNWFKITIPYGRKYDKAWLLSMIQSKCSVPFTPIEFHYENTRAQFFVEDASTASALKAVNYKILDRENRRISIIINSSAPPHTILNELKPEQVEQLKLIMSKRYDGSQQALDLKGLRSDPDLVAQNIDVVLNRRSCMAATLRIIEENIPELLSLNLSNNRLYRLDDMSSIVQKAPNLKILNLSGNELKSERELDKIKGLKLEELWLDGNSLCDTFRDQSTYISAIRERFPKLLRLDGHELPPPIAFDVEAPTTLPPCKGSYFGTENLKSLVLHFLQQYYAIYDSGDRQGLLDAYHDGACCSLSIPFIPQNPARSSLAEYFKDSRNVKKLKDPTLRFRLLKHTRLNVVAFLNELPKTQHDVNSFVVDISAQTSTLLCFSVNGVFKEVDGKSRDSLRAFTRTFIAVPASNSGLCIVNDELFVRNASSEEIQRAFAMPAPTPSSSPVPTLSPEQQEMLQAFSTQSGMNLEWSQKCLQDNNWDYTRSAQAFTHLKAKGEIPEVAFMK

The variants in this assay derive from B1. As to conditions: with nxf1_human NXF1, Q9UBU9.
Regarding P465L;G466E, the “effect of a mutation on the interaction” value was “disrupting interaction”.
